Assay results reported in US20200283475A1.

Legend:
[1] = molecular target: human polyclonal IgG (Gammanorm) (human); test: SPR; ratio of remaining capacity to reference Zvar1
[2] = molecular target: human polyclonal IgG (Gammanorm) (human); test: SPR, ligand on chip; signal left after 96-100 CIP cycles 0.5 M NaOH
[3] = molecular target: human polyclonal IgG (Gammanorm) (human); test: SPR; ratio to reference Zvar4
[4] = molecular target: human polyclonal IgG (Gammanorm) (human); test: SPR, ligand on chip; CIP cycles 0.5 M NaOH
[5] = molecular target: human polyclonal IgG (Gammanorm) (human); test: SPR, 1 M NaOH; ratio to reference Zvar4
[6] = molecular target: human polyclonal IgG (Gammanorm) (human); test: SPR, ligand on chip; CIP cycles 1 M NaOH
[7] = molecular target: human polyclonal IgG (Gammanorm) (human); test: column breakthrough, ligand […]; after 24 h 0.5 M NaOH
[8] = molecular target: human polyclonal IgG (Gammanorm) (human); test: column breakthrough, ligand 7.0 mg/ml; after 24 h 0.5 M NaOH
[9] = molecular target: human polyclonal IgG (Gammanorm) (human); test: column breakthrough, agarose beads, ligand […], 6 min residence
[10] = molecular target: human polyclonal IgG (Gammanorm) (human); test: column breakthrough, agarose beads, ligand 7.0 mg/ml, 6 min residence
[11] = molecular target: human polyclonal IgG (Gammanorm) (human); test: SPR; ratio to reference Zvar2

Substance	Capacity relative to reference [1]	Capacity after 96-100 cycles [2] [%]	Remaining capacity 100 cycles (%) [4] [%]	other results
Zvar(N11E,Q32E,K50R)1 (designed binder)	1.04	53	–	–
Zvar(N11K,H18K,D37E,A42R,N43A,L44I)1 (designed binder)	1.31	59	–	–
Zvar(N11K,H18K,S33K,D37E,A42R,N43A,L44I,K50R,L51Y)1 (designed binder)	1.46	67	–	–
Zvar(Q9A,N11E,A29D,Q40V,A42K,N43A,L44I)1 (designed binder)	1.19	56	–	–
Zvar(Q9A,N11E,A29E,Q40V,A42K,N43A,L44I)1 (designed binder)	1.21	57	–	–
Zvar(Q9A,N11E,A29F,Q40V,A42K,N43A,L44I)1 (designed binder)	1.35	62	–	–
Zvar(Q9A,N11E,A29H,Q40V,A42K,N43A,L44I)1 (designed binder)	1.21	57	–	–
Zvar(Q9A,N11E,A29I,Q40V,A42K,N43A,L44I)1 (designed binder)	1.23	58	–	–
Zvar(Q9A,N11E,A29K,Q40V,A42K,N43A,L44I)1 (designed binder)	1.28	59	–	–
Zvar(Q9A,N11E,A29L,Q40V,A42K,N43A,L44I)1 (designed binder)	1.33	61	–	–
Zvar(Q9A,N11E,A29M,Q40V,A42K,N43A,L44I)1 (designed binder)	1.32	62	–	–
Zvar(Q9A,N11E,A29N,Q40V,A42K,N43A,L44I)1 (designed binder)	1.3	61	–	–
Zvar(Q9A,N11E,A29Q,Q40V,A42K,N43A,L44I)1 (designed binder)	1.28	60	–	–
Zvar(Q9A,N11E,A29R,Q40V,A42K,N43A,L44I)1 (designed binder)	1.26	58	–	–
Zvar(Q9A,N11E,A29S,Q40V,A42K,N43A,L44I)1 (designed binder)	1.38	66	–	–
Zvar(Q9A,N11E,A29T,Q40V,A42K,N43A,L44I)1 (designed binder)	1.28	60	–	–
Zvar(Q9A,N11E,A29V,Q40V,A42K,N43A,L44I)1 (designed binder)	1.32	62	–	–
Zvar(Q9A,N11E,A29W,Q40V,A42K,N43A,L44I)1 (designed binder)	1.3	60	–	–
Zvar(Q9A,N11E,A29Y,Q40V,A42K,N43A,L44I)1 (designed binder)	1.27	61	–	–
Zvar(Q9A,N11E,D37E,Q40V,A42K,N43A,L44I)4 (designed binder)	–	–	81	Capacity relative to ref. 100 cycles [3]: 1.13
Zvar(Q9A,N11E,D37E,Q40V,A42R,N43A,L44I)4 (designed binder)	–	–	84	Capacity relative to ref. 100 cycles [3]: 1.17
Zvar(Q9A,N11E,N28A,N43A)4 (designed binder)	–	–	80	Capacity relative to ref. 100 cycles [3]: 1.19; Capacity relative to ref. 200 cycles [3]: 1.72; Capacity relative to ref. 300 cycles [3]: 2.62; Capacity relative to ref. 100 cycles [5]: 2.04; Remaining capacity 100 cycles (%) [6]: 55%; Remaining capacity 200 cycles (%) [4]: 62%; Remaining capacity 300 cycles (%) [4]: 42%
Zvar(Q9A,N11E,N28A,N43A)4 with an additional N-terminal cysteine (designed binder)	–	–	–	Remaining IgG capacity Qb10 after six 4 h cycles [7]: 46.2 mg/mL; Remaining IgG capacity after six 4 h cycles (%) [7]: 93%; Remaining IgG capacity Qb10 after six 4 h cycles [8]: 44.1 mg/mL; Remaining IgG capacity after six 4 h cycles (%) [8]: 90%; Initial IgG capacity Qb10 [9]: 50 mg/mL; Initial IgG capacity Qb10 [10]: 49.1 mg/mL
Zvar(Q9A,N11E,N28A,Q40V,A42K,N43A,L44I)1 (designed binder)	1.35	65	–	–

Substance	Capacity relative to reference [1]	Capacity after 96-100 cycles [2] [%]	Remaining capacity 100 cycles (%) [4] [%]	other results
Zvar(Q9A,N11E,N28A,Q40V,A42K,N43A,L44I)4 (designed binder)	–	–	84	Capacity relative to ref. 100 cycles [3]: 1.24
Zvar(Q9A,N11E,N43A)4 (designed binder)	–	–	81	Capacity relative to ref. 100 cycles [3]: 1.21; Capacity relative to ref. 200 cycles [3]: 1.72; Capacity relative to ref. 300 cycles [3]: 2.56; Remaining capacity 200 cycles (%) [4]: 62%; Remaining capacity 300 cycles (%) [4]: 41%
Zvar(Q9A,N11E,Q40V,A42K,N43A,L44I)2 with A56, P57 and K58 in linker deleted (designed binder)	–	–	68	Capacity relative to ref. 100 cycles [11]: 1.26
Zvar(Q9A,N11E,Q40V,A42K,N43A,L44I)2 with D2, A3 and K4 in linker deleted (designed binder)	–	–	70	Capacity relative to ref. 100 cycles [11]: 1.27
Zvar(Q9A,N11E,Q40V,A42K,N43A,L44I)2 with K4, F5, D6, K7 and E8 in linker deleted (designed binder)	–	–	70	Capacity relative to ref. 100 cycles [11]: 1.3
Zvar(Q9A,N11E,Q40V,A42K,N43A,L44I)2 with K58, V1 and D2 in linker deleted (designed binder)	–	–	76	Capacity relative to ref. 100 cycles [11]: 1.38
Zvar(Q9A,N11E,Q40V,A42K,N43A,L44I)2 with P57, K58, V1, D2 and A3 in linker deleted (designed binder)	–	–	74	Capacity relative to ref. 100 cycles [11]: 1.35
Zvar(Q9A,N11E,Q40V,A42K,N43A,L44I)2 with V1, D2 and A3 in linker deleted (designed binder)	–	–	75	Capacity relative to ref. 100 cycles [11]: 1.39
Zvar(Q9A,N11E,Q40V,A42K,N43A,L44I)2 with V1, D2, A3, K4, F5, D6, K7 and E8 in linker deleted (designed binder)	–	–	62	Capacity relative to ref. 100 cycles [11]: 1.13
Zvar(Q9A,N11E,Q40V,A42K,N43A,L44I)2 with YEDG inserted in linker between K58 and V1 (designed binder)	–	–	72	Capacity relative to ref. 100 cycles [11]: 1.31
Zvar(Q9A,N11E,Q40V,A42K,N43A,L44I)4 (designed binder)	–	–	90	Capacity relative to ref. 100 cycles [3]: 1.34; Capacity relative to ref. 200 cycles [3]: 2.06; Capacity relative to ref. 300 cycles [3]: 3.56; Capacity relative to ref. 100 cycles [5]: 2.07; Remaining capacity 100 cycles (%) [6]: 56%; Remaining capacity 200 cycles (%) [4]: 74%; Remaining capacity 300 cycles (%) [4]: 57%
Zvar(Q9A,N11E,Q40V,A42K,N43A,L44I,D53F)1 (designed binder)	1.26	58	–	–
Zvar(Q9A,N11E,Q40V,A42K,N43A,L44I,D53K)1 (designed binder)	1.41	65	–	–
Zvar(Q9A,N11E,Q40V,A42K,N43A,L44I,D53R)1 (designed binder)	1.3	60	–	–
Zvar(Q9A,N11E,Q40V,A42K,N43A,L44I,D53W)1 (designed binder)	1.35	62	–	–
Zvar(Q9A,N11E,Q40V,A42K,N43A,L44I,D53Y)1 (designed binder)	1.28	59	–	–
Zvar(Q9A,N11E,Q40V,A42K,N43E,L44I)4 (designed binder)	–	–	84	Capacity relative to ref. 100 cycles [3]: 1.25; Capacity relative to ref. 200 cycles [3]: 1.81; Capacity relative to ref. 300 cycles [3]: 3; Capacity relative to ref. 100 cycles [5]: 2; Remaining capacity 100 cycles (%) [6]: 54%; Remaining capacity 200 cycles (%) [4]: 65%; Remaining capacity 300 cycles (%) [4]: 48%
Zvar(Q9A,N11E,Q40V,A42K,N43del,L44I)1 (designed binder)	1.2	55	–	–
Zvar(Q9A,N11E,Q40V,A42del,N43A,L44I)1 (designed binder)	1.24	57	–	–
Zvar(Q9A,N11E,Q40del,A42K,N43A,L44I)1 (designed binder)	1.28	59	–	–
Zvar(Q9A,N11K,H18K,D37E,A42R,N43A,L44I)1 (designed binder)	1.4	63	–	–
Zvar(Q9A,N11K,H18K,D37E,A42R,N43A,L44I,K50R)1 (designed binder)	1.49	67	–	–
Zvar(Q9A,N11K,H18K,S33K,D37E,A42R,N43A,L44I,K50R,L51Y)1 (designed binder)	1.28	59	–	–
Zvar(Q9del,N11E,Q40V,A42K,N43A,L44I)1 (designed binder)	1.3	60	–	–
